According to publication PMC10113271 (2023):
Where no end group is shown, it is not given here. The star is where a group is joined. FITC = O=C1OC2(c3ccc(O)cc3Oc3cc(O)ccc32)c2ccc(NC(=S)*)cc21; βAla = NCCC(=O)O

Target: KIX domain of CREB-binding protein (residues 586–672 of mouse CBP) (mouse, UniProt P45481 586-672)
Experiment: FP

Chain of KIX domain of CREB-binding protein (residues 586–672 of mouse CBP) (P45481 586-672): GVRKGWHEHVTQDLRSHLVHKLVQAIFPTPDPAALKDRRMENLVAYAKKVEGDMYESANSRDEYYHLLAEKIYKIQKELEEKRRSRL

Binder: {FITC-βAla}-GYNDEDPEKEKRIKELELLLMSTENELKGQQAL [FITC-labeled c-Myb TAD peptide]
- Kd: 0.059 µM
